Laboratory results published in patent publication US20100172835A1 (BURNHAM INSTITUTE FOR MEDICAL RESEARCH, published 2010).
Bridges are numbered along the chain shown (N, C = ends). Where no end group is shown, it is not given here.

Tests used:
[1] = molecular target: T1, purified gC1qR/p32 protein (human, UniProt Q07021 74-282); assay: LyP-1 phage binding to wells coated with purified gC1qR/p32 with 20 µg/ml mAb; ligand blocked: LyP-1 phage
T1 construct: also called purified p32
T1 sequence (looked up): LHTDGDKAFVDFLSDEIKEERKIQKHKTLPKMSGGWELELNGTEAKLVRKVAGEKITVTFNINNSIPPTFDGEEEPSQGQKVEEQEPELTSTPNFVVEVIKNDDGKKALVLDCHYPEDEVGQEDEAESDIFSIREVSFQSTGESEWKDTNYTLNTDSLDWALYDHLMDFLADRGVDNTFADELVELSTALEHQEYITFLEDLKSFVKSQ

[2] = molecular target: T2, gC1qR/p32 at the cell surface (human, UniProt Q07021 74-282); assay: LyP-1 phage binding to Raji cells pre-incubated with 40 µg/ml mAb; ligand blocked: LyP-1 phage
T2 construct: whole, on cells; also called cell surface p32
T2 sequence (looked up): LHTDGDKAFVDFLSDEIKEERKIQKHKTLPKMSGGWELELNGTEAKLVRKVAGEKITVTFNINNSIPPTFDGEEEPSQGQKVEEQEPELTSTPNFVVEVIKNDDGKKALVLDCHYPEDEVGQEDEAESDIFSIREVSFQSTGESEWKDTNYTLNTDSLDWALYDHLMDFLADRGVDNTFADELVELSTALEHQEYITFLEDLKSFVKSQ

[3] = molecular target: T3, neuropilin-1 by forced expression on M21 cells (Homo sapiens (Human), UniProt O14786 22-923); assay: cell-based or functional assay
[4] = molecular target: T3, neuropilin-1 by forced expression on …; assay: CRGDK phage binding to M21 cells transfected with neuropilin-1 cDNA, against untransfected or vector-only cells
[5] = molecular target: T2, gC1qR/p32 at the cell surface; assay: FACS of FITC-peptide on MDA-MB-435 cells transfected with p32 siRNA or control siRNA
Protocol: (§1) 48 hours after transfection, inhibition of p32 expression was checked by immunoblot analysis and immunostaining (upper panels). β-actin was used as a control. […] Cells incubated in the absence of peptide served as negative control. […] A representative experiment out of three is shown. C. […] Insertless phage was used to determine background phage binding.
(§2) MDA-MB-435 cells were transiently transfected with gC1qR/p32-specific or control siRNAs. […] The amount of fluorescence in living cells was analyzed by FACS. Cells incubated in the absence of peptide served as FITC negative control.

[6] = molecular target: T4, gC1qR/p32 from tumor cell extracts (human, UniProt Q07021 74-282); assay: pull-down from MDA-MB-435 extracts, anti-gC1qR/p32 immunoblot
T4 construct: mature; From xenograft extracts an additional 75 kD band was also identified as gC1qR/p32; also called gC1q/p32 receptor; p32/p33/gC1qR/HABP1
T4 sequence (looked up): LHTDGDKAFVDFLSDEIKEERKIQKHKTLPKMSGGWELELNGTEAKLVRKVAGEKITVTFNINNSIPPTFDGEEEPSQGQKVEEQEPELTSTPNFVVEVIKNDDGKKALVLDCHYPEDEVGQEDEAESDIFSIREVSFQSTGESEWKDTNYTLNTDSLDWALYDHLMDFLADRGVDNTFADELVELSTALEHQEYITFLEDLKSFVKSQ

[7] = molecular target: T2, gC1qR/p32 at the cell surface; assay: FACS of 10 µM FITC-LyP-1 on MDA-MB-435 S35 cells with p32 siRNA or control siRNA
Protocol: as §1, §2

[8] = molecular target: T1, purified gC1qR/p32 protein; assay: phage binding to wells coated with purified gC1qR/p32, plaque assay
[9] = molecular target: T2, gC1qR/p32 at the cell surface; assay: phage binding to C8161 cells transiently transfected with gC1qR/p32 cDNA
Protocol: as §1, with “A. C8161 cells were transiently transfected with pEGFP together with either empty pcDNA3.1 vector or p32 pcDNA3.1 vector. Transfected cells were sorted for EGFP expression and the sorted populations were used for phage binding assay and immunoblot analysis with anti-p32. […] 48” for “48”

αv integrins = assay: assay not described in the filing

T3 sequence (O14786 22-923 limits assumed, form in doubt): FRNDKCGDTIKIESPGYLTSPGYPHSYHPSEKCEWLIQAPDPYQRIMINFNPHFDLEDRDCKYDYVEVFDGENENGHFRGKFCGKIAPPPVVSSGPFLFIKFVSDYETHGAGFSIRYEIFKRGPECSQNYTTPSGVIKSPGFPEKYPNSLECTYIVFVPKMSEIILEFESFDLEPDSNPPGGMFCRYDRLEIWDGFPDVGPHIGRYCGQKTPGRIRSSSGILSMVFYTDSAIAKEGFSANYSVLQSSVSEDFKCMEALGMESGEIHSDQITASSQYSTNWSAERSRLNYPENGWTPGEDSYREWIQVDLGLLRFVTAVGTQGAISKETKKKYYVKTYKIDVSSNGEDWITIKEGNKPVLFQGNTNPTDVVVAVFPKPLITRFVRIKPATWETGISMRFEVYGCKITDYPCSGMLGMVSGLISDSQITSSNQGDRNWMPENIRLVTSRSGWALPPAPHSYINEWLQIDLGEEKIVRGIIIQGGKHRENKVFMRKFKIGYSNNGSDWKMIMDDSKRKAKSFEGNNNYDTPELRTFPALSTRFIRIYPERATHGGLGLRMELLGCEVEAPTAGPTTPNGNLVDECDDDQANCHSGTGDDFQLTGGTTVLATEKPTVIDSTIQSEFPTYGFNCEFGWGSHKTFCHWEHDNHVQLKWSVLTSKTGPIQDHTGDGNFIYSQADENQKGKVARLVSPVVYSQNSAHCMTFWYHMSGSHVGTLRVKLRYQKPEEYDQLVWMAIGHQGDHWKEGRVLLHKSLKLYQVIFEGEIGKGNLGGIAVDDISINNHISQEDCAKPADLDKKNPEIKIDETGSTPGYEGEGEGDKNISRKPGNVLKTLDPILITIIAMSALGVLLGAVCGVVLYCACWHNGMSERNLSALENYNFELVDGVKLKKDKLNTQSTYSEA

mouse monoclonal 60.11 anti-gC1qR/p32 antibody
reduction of LyP-1 phage binding [1]: 90%
reduction of LyP-1 binding [2]: 50%

B1: CRGDK phage (other)
chain: CRGDK
modifications: also: displayed on T7 phage capsid protein
notes: not shown: T7 phage capsid protein
internalization of CRGDK phage into M21 cells [3]: 3.5 fold
fold increase in binding upon forced expression of neuropilin-1 [4]: 3.5 fold

B2: FITC conjugated control peptide ARALPSQRSR (peptide)
peptide: ARALPSQRSR
modifications: also: FITC conjugated, position not given here
binding result [5]: no binding (tested: 10 µM)

B3: biotinylated CRV peptide (peptide)
peptide: CRVRTRSGC
modifications: disulfide 1-9 (inferred); also: biotinylated, site not given here
notes: Negative control in the pull-down; also called control peptide
binding result [6]: no binding

B4: FITC conjugated LyP-1 peptide (peptide)
peptide: CGNKRTRGC
modifications: disulfide 1-9 (inferred); also: FITC conjugated, position not given here
notes: Used at 10 uM on cells at 4 C; also called FITC-LyP-1
binding result [7]: binds

B5: biotinylated CREKA peptide (peptide)
peptide: CREKA
modifications: also: biotinylated, position not given here
notes: as for B3
binding result [6]: no binding

B6: LyP-1 phage (other, not shown: large carriers)
chain: CGNKRTRGC
modifications: cysteine pairing not given here; also: displayed on phage coat protein
notes: Phage displaying the LyP-1 peptide; also called Lyp-1 expressing phage
fold binding over insertless control phage [8]: 60 fold
fold binding over control phage [9]: 5 fold

B7: CRGDK fragment (peptide)
peptide: CRGDK
fold reduction in affinity (against iRGD) (αv integrins): 50 to 150 fold
